In patent publication US20230357348A1 (AstraZeneca / MedImmune, published 2023):
Starred links: 1 amine or outer side, 2 acyl side, 3 side chain; linkers in the order of their positions; H or OH if unused. Non-standard residues stand in square brackets, D forms with d. Groups on a side chain read outwards from the residue. No end group written: not given here. *: point of attachment. C20 diacid = O=C(O)CCCCCCCCCCCCCCCCCCC(=O)*; C18 diacid = O=C(O)CCCCCCCCCCCCCCCCC(=O)*; γGlu = O=C(O)[C@H](CCC(=O)[*:2])N[*:1]; αMeF = C[C@](N)(Cc1ccccc1)C(=O)O; AEEA = NCCOCCOCC(=O)O; Aib = CC(C)(N)C(=O)O

What was measured:
[1] = molecular target: human GLP-1 receptor (hGLP-1R) (human, UniProt P43220 24-463); assay: cell-based or functional assay
[2] = molecular target: human glucagon receptor (hGCGR) (human, UniProt P47871 26-477); assay: cell-based or functional assay
human glucagon receptor (hGCGR), sequence (P47871 26-477): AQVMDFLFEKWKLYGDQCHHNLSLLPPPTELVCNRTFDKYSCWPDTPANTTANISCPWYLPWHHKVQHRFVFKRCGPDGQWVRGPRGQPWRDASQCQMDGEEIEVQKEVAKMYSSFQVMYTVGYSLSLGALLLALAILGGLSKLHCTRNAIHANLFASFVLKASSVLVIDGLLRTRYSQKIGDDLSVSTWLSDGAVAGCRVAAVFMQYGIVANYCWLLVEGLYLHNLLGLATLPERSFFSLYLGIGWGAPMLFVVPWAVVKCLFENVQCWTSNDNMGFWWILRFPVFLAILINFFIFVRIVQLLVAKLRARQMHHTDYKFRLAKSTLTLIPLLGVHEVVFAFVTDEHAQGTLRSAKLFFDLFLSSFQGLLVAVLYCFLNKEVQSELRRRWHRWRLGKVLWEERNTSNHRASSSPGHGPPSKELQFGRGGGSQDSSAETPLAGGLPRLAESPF

hGLP-1R EC50 (pM); cAMP production [1] [pM] | hGluc-R EC50 (pM); cAMP production [2] [pM] | Binder
424 | 478 | HXHGSXTSDVSKXLDSQAAQDFVXWIANT (Aib at 2; αMePhe at 6 and 13; K((PEG)2-(PEG)2-γE-γE-C20diacid)24; C-terminal amide) [Peptide 355]
311 | 163 | HXHGSXTSDVSKXLDSQAAQDFVXWIANT (Aib at 2; αMePhe at 6 and 13; K(γE-γE-(PEG)2-γE-γE-C18diacid)24 (printed YE-YE-(PEG)2-γE-γE-); C-terminal amide) [Peptide 353]
917 | 550 | HXHGSXTSDVSKXLDSQAAQDFVXWIANT (Aib at 2; αMePhe at 6 and 13; K(γE-γE-(PEG)2-γE-γE-C20diacid)24; C-terminal amide) [Peptide 357]
121 | 83.7 | HXQGSXTSDVSKXLDSQAAQDFVXWIANT (Aib at 2; αMePhe at 6 and 13; K(O2Oc-O2Oc-γE-C18diacid)24; C-terminal amide) [Peptide 349]
70.1 | 4110 | HXHGTFTSDVSKXLDSQAAQDFVXWIANT (Aib at 2; αMePhe at 6 and 13; K(O2Oc-O2Oc-γE-C18diacid)24; C-terminal amide) [Peptide 348]
304 | 316 | HXHGSXTSDVSKXLDSQAAQDFVXWIANT (Aib at 2; αMePhe at 6 and 13; K(O2Oc-O2Oc-γE-C20diacid)24; C-terminal amide) [Peptide 356]
797 | 1240 | H[Aib]HGS[αMeF]TSDVSK[αMeF]LDSQAAQD[αMeF]VK([AEEA-AEEA-γGlu-γGlu-C20 diacid])[Aib]IANT-NH2 [Peptide 384]
4970 | 597 | HXHGTFTSDVSKXLDSQAAQDFVXWIANT (Aib at 2; αMePhe at 13; K(γE-C20diacid)24; C-terminal amide) [Peptide 347]
1110 | 902 | HXHGSXTSDVSKXLDSQAAQDFVXWIANT (Aib at 2; αMePhe at 6 and 13; K(γE-C20diacid)24; C-terminal amide) [Peptide 354]
56 | 329 | H[Aib]HGS[αMeF]TSDVSK[αMeF]LDSR[Aib]AQDFVK([AEEA-AEEA-γGlu-γGlu-C18 diacid])SIANTGG-NH2 (N-terminus assumed; SMILES CC[C@H](C)[C@H](NC(=O)[C@H](CO)NC(=O)[C@H](CCCCNC(=O)COCCOCCNC(=O)COCCOCCNC(=O)CC[C@H](NC(=O)CC[C@H](NC(=O)CCCCCCCCCCCCCCCCC(=O)O)C(=O)O)C(=O)O)NC(=O)[C@@H](NC(=O)[C@H](Cc1ccccc1)NC(=O)[C@H](CC(=O)O)NC(=O)[C@H](CCC(N)=O)NC(=O)[C@H](C)NC(=O)C(C)(C)NC(=O)[C@H](CCCNC(=N)N)NC(=O)[C@H](CO)NC(=O)[C@H](CC(=O)O)NC(=O)[C@H](CC(C)C)NC(=O)[C@](C)(Cc1ccccc1)NC(=O)[C@H](CCCCN)NC(=O)[C@H](CO)NC(=O)[C@@H](NC(=O)[C@H](CC(=O)O)NC(=O)[C@H](CO)NC(=O)[C@@H](NC(=O)[C@](C)(Cc1ccccc1)NC(=O)[C@H](CO)NC(=O)CNC(=O)[C@H](Cc1c[nH]cn1)NC(=O)C(C)(C)NC(=O)[C@@H](N)Cc1c[nH]cn1)[C@@H](C)O)C(C)C)C(C)C)C(=O)N[C@@H](C)C(=O)N[C@@H](CC(N)=O)C(=O)N[C@H](C(=O)NCC(=O)NCC(N)=O)[C@@H](C)O) [Peptide 382]
46.1 | 5050 | HXIGSXTSDVSKXLDSQAAQDFVXWIANT (Aib at 2; αMePhe at 6 and 13; K(O2Oc-O2Oc-γE-C18diacid)24; C-terminal amide) [Peptide 359]
